These results are taken from paper PMC8379176 (Nature Communications, 2021).

First the molecules themselves.
B1: E197ECL2A (protein)
chain: MWNATPSEEPGFNLTLADLDWDASPGNDSLGDELLQLFPAPLLAGVTATCVALFVVGIAGNLLTMLVVSRFRELRTTTNLYLSSMAFSDLLIFLCMPLDLVRLWQYRPWNFGDLLCKLFQFVSESCTYATVLTITALSVERYFAICFPLRAKVVVTKGRVKLVIFVIWAVAFCSAGPIFVLVGVEHENGTDPWDTNACRPTEFAVRSGLLTVMVWVSSIFFFLPVFCLTVLYSLIGRKLWRRRRGDAVVGASLRDQNHKQTVKMLAVVVFAFILCWLPFHVGRYLFSKSFEPGSLEIAQISQYCNLVSFVLFYLSAAINPILYNIMSKKYRVAVFRLLGFEPFSQRKLSTLKDESSRAWTESSINT
modifications: SNAP tag labelled with SNAP-Lumi4-Tb; left off: SNAP, N-terminal, kept
B2: N3057.35A (protein)
chain: B1 chain with A197E, N305A
modifications: left off: SNAP, N-terminal, kept
B3: F3097.39A (protein)
chain: B1 chain with A197E, F309A
modifications: SNAP tag labelled with SNAP-Lumi4-Tb; left off: SNAP, N-terminal, kept
B4: F2866.58A (protein)
chain: B1 chain with A197E, F286A
modifications: SNAP tag labelled with SNAP-Lumi4-Tb; left off: SNAP, N-terminal, kept
B5: F2796.51A (protein)
chain: B1 chain with A197E, F279A
modifications: SNAP tag labelled with SNAP-Lumi4-Tb; left off: SNAP, N-terminal, kept
B6: A204ECL2E (protein, UniProt Q92847 1-366, looked up, variant A204E)
Growth hormone secretagogue …: B1 chain with A197E, A204E
B7: R2836.55A (protein)
chain: B1 chain with A197E, R283A
modifications: SNAP tag labelled with SNAP-Lumi4-Tb; left off: SNAP, N-terminal, kept
B8: Q3027.32A (protein)
chain: B1 chain with A197E, Q302A
modifications: SNAP tag labelled with SNAP-Lumi4-Tb; left off: SNAP, N-terminal, kept
B9: F3127.42A (protein)
chain: B1 chain with A197E, F312A
modifications: SNAP tag labelled with SNAP-Lumi4-Tb; left off: SNAP, N-terminal, kept

Positions count from the first letter of the chain named. Some results are limits rather than exact numbers.

For the first data set, the target named is HA-tagged ghrelin receptor F286D (human) (UniProt Q92847).
Test: not given
Details: not given
As for “ghrelin (octanoylated at Ser3) (peptide)”, the fold decrease in calcium response of HEK293 cells, activity of ghrelin against the WT receptor was more than 250 fold.

For a further data set, the system named is ghrelin receptor (WT or mutants). The experiment in a line: Cell-surface expression assay (FACS). The format is cell-based, human. Conditions: replicate 1. As to the method:
Cell-surface expression for each mutant was monitored by a fluorescence-activated cell sorting (FACS) assay. In brief, the expressed cells were incubated with mouse anti-HA-FITC antibody (Sigma) at a dilution of 1:200 for 20 min at 4 °C, and then a 9-fold excess of PBS was added to cells. […] The FACS data were analyzed by BD Accuri C6 software 1.0.264.21. The gating strategy and calculation method of expression are shown in Supplementary Fig. 11.
Supplementary Figure 11 | Gating strategy of cell surface expression assay. Circle a gate P1 in the scatter map (black circle). The cells shown in the histogram map are all the cells in the gate P1 in the scatter map. Fluorescence signal intensity (FITC) is presented by […]. With the Blank sample as the reference value of background fluorescence signal (a), the fluorescence signal histogram map is divided into two regions. The left region represents the negative cell community (FITC-), while the right region represents the positive cell community (FITC+). The expression level of cell surface wild-type (WT) ghrelin receptor (b) can be calculated as follows:
(M(FITC+)-M(FITC-))×(FITC+% Parent). M, mean fluorescence intensity. The expression level of the ghrelin receptor mutant is calculated similarly to WT receptor and then is normalized with the WT to calculate the relative expression value. […]
Regarding B1, the Cell-surface expression was determined as 101.89%.

The molecule B2 showed a Cell-surface expression of 83.54%.

In turn, B3 came in with a Cell-surface expression of 77.16%.

B4: the Cell-surface expression is on record as 90.14%.

Regarding B5, the Cell-surface expression worked out at 103.70%.

The molecule B6 gave a Cell-surface expression of 81.34%.

In turn, B7 gave a Cell-surface expression of 56.22%.

In turn, B8 gave a Cell-surface expression of 99.52%.

On to B9, for which the Cell-surface expression was determined as 89.96%.

The data set is the same for the next values; noted with them: replicate 2.
In the case of B1, the Cell-surface expression turned out to be 100.72%.

B2 yielded a Cell-surface expression of 81.81%.

The molecule B3 yielded a Cell-surface expression of 85.09%.

B4: the Cell-surface expression was determined as 93.12%.

B5 had a Cell-surface expression of 100.07%.

In the case of B6, the Cell-surface expression came to 81.24%.

In the case of B7, the Cell-surface expression is 65.89%.

B8 registered a Cell-surface expression of 91.82%.

B9 displayed a Cell-surface expression of 82.57%.

Still in this data set, the particulars now being: replicate 3.
Molecule B1 returned a Cell-surface expression of 102.63%.

B2 returned a Cell-surface expression of 86.10%.

B3 came in with a Cell-surface expression of 81.26%.

For B4, the Cell-surface expression was 89.15%.

The molecule B5 displayed a Cell-surface expression of 101.03%.

On to B6, for which the Cell-surface expression is listed as 78.97%.

Consider B7, for which the Cell-surface expression stood at 64.91%.

With B8, the Cell-surface expression came out at 87.39%.

Consider B9, for which the Cell-surface expression stood at 78.32%.

The data set is the same for the next values; noted with them: replicate 4.
Turning to B1, the Cell-surface expression was determined as 110.56%.

Regarding B2, the Cell-surface expression is listed as 86.24%.

With B3, the Cell-surface expression is on record as 79.68%.

B4 displayed a Cell-surface expression of 93.89%.

B5 had a Cell-surface expression of 106.36%.

In turn, B6 gave a Cell-surface expression of 76.38%.

As for B7, the Cell-surface expression was 66.07%.

B8: the Cell-surface expression is 99.41%.

In the case of B9, the Cell-surface expression is on record as 82.11%.

The data set is the same for the next values; noted with them: replicate 5.
The molecule B1 yielded a Cell-surface expression of 103.22%.

In turn, B2 had a Cell-surface expression of 88.82%.

For the molecule B3, the Cell-surface expression was found to be 76.65%.

Take B4: the Cell-surface expression came to 90.00%.

Molecule B5 showed a Cell-surface expression of 95.20%.

In turn, B6 registered a Cell-surface expression of 75.96%.

The molecule B7 came in with a Cell-surface expression of 63.09%.

The molecule B8 displayed a Cell-surface expression of 85.20%.

B9 displayed a Cell-surface expression of 77.05%.

System in another data set: not given
Test: not given
To be noted: cited from earlier work. The text has this:
Food intake is one of the most fundamental processes required for sustaining human life.
Turning to ghrelin, the “growth hormone-releasing activity” value is given as “potent growth hormone-releasing activity”.
